Reference: PMC6017014, “VpStyA1/VpStyA2B of Variovorax paradoxus EPS: An Aryl Alkyl Sulfoxidase Rather than a Styrene Epoxidizing Monooxygenase” (Molecules : A Journal of Synthetic Chemistry and Natural …, 2018)

Columns and labels:
VpStyA2B = biological target: T1, VpStyA2B (Variovorax paradoxus, UniProt E6V139); assay: NADH consumption at […] nm, Michaelis-Menten fit; type: biochemical; conditions: linker AREAV (408-412) replaced/extended; NADH in excess, concentrations as for wild type; 20 mM Tris-HCl pH 7.5, 30 °C; read-out: Acceptor FAD ^1 / Km
T1 construct: gene styA2B
T1 sequence (E6V139 1-578): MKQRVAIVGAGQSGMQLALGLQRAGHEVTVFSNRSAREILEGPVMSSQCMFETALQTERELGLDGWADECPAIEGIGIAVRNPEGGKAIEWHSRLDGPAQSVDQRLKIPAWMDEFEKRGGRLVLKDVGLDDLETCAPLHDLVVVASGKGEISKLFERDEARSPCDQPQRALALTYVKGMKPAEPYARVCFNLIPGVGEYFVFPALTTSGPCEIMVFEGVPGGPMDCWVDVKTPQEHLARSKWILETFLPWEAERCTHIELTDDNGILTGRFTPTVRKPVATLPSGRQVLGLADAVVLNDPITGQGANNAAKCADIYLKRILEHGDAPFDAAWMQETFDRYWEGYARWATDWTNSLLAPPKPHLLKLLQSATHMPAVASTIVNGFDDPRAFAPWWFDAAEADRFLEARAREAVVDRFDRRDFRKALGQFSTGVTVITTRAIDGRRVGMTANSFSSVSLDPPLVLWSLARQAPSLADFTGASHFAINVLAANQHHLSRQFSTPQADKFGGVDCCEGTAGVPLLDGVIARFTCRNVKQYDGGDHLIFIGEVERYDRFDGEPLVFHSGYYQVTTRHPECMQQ

[1] = system: Cc1cc2nc3c(=O)[nH]c(=O)nc-3n(C[C@H](O)[C@H](O)[C@H](O)COP(=O)(O)O)c2cc1C; assay: purified protein; type: biochemical, Variovorax paradoxus; conditions: NADH 164 µM, FMN 4.1-90.2 µM, 20 mM Tris-HCl pH 7.5, 30 °C
[2] = system: Cc1cc2nc3c(=O)[nH]c(=O)nc-3n(C[C@H](O)[C@H](O)[C@H](O)COP(=O)(O)OP(=O)(O)OC[C@H]3O[C@@H](n4cnc5c(N)ncnc54)[C@H](O)[C@@H]3O)c2cc1C; assay: purified protein; type: biochemical, Variovorax paradoxus; conditions: 20 mM Tris-HCl pH 7.5, 30 °C
[3] = 408-HHHHH linker mutant, NADH in excess, concentrations as for wild type
[4] = 408-TIVVV linker mutant, NADH in excess, concentrations as for wild type
[5] = 408-WYHHH linker mutant, NADH in excess, concentrations as for wild type
[6] = 408-AAAAA linker mutant, NADH in excess, concentrations as for wild type

Cc1cc2nc3c(=O)[nH]c(=O)nc-3n(C[C@H](O)[C@H](O)[C@H](O)COP(=O)(O)OP(=O)(O)OC[C@H]3O[C@@H](n4cnc5c(N)ncnc54)[C@H](O)[C@@H]3O)c2cc1C [FAD]
Km (VpStyA2B): 7.4 µM

VpStyA2B (Variovorax paradoxus EPS)
Km [1]: 45.9 ± 6.8 µM
Vmax [1]: 26 µmol/min/mg
kcat [1]: 28.7 ± 1.9 s⁻¹
kcat/Km [1]: 570000 M⁻¹ s⁻¹
Km ([2]; NADH 164 µM, FAD 6.3-78.8 µM): 33.6 ± 4.0 µM
Vmax ([2]; NADH 164 µM, FAD 6.3-78.8 µM): 20.2 µmol/min/mg
kcat ([2]; NADH 164 µM, FAD 6.3-78.8 µM): 22.3 ± 1.1 s⁻¹
kcat/Km ([2]; NADH 164 µM, FAD 6.3-78.8 µM): 640000 M⁻¹ s⁻¹

VpStyA2B (Variovorax paradoxus EPS; A408H/A411H/E410H/R409H/V412H)
Km [2, 3]: 14.5 µM
Vmax [2, 3]: 3.1 µmol/min/mg
kcat/Km [2, 3]: 230000 M⁻¹ s⁻¹

VpStyA2B (Variovorax paradoxus EPS; A408T/A411V/E410V/R409I)
Km [2, 4]: 5.1 µM
Vmax [2, 4]: 3.1 µmol/min/mg
kcat/Km [2, 4]: 650000 M⁻¹ s⁻¹

VpStyA2B (Variovorax paradoxus EPS; A408W/A411H/E410H/R409Y/V412H)
Km [2, 5]: 3.2 µM
Vmax [2, 5]: 6.9 µmol/min/mg
kcat/Km [2, 5]: 2.3e+06 M⁻¹ s⁻¹

VpStyA2B (Variovorax paradoxus EPS; E410A/R409A/V412A)
Km [2, 6]: 1.8 µM
Vmax [2, 6]: 8.8 µmol/min/mg
kcat/Km [2, 6]: 5.21e+06 M⁻¹ s⁻¹
